Measured values reported in paper PMC6711944.

Target: NS1B-NTR (1-103), N-terminal region of the influenza B virus NS1 protein (influenza B virus) (UniProt P03502)
Assay: ITC; about 0.5 mM ISG15 injected into 250 ul of 0.05 mM NS1B-NTR in the cell, 20 aliquots of 2 ul; 25 °C; 10 mM HEPES-sodium, 500 mM NaCl, pH 7.2; MicroCal iTC200; 'one set of sites' fitting model

With cISG15-K82A-N83A (natural protein) the Kd was 12 µM.
